Data reported in PMC4352251, “The VieB auxiliary protein negatively regulates the VieSA signal transduction system in Vibrio cholerae” (BMC Microbiology, 2015).

Molecular target: VieS-C (untagged cytoplasmic portion of the sensor kinase VieS) (UniProt O68317)
Assay: composition-gradient MALS (CG-MALS)

VieB D62E (His6 tag removed) (from UniProt O68319 1-553) (natural protein)
Kd: 197 nM | stoichiometry N (VieB D62E monomer per VieS-C dimer): 1
